US9670514B2, “Method for producing polysaccharide” (SANYO CHEMICAL INDUSTRIES, LTD., priority 2011, dated 2017)

Key:
[1] = Specific activity of ribonucleoside diphosphate conversion enzyme solutions (TLC, UV 260 nm); assay type: biochemical; details: 1 mM uridine diphosphate, 30° C., pH 7.0, with the co-substrate of each enzyme
Procedure: Reaction solution (2) was prepared by adding 10 μL of 1 M sucrose aqueous solution and 10 μL of sucrose synthase aqueous solution (D7-1) to 1 mL of aqueous solution R (50 mM phosphate buffer (pH of 7.0) containing 100 mM sodium chloride, 10 mM magnesium chloride, and 1 mM uridine diphosphate). Three such reaction solutions (2) were prepared and allowed to react at 30° C. for 5 minutes, 10 minutes, and 15 minutes, respectively. As for the amount of compound (C-7) as the reaction product (uridine diphosphate-glucose), the reaction product was developed on TLC (PEI-Cellulose plate available from Sigma-Aldrich Corporation, hereinafter the same) (developing solvent: an aqueous solution containing 1 M LiCl and 1 M formic acid, hereinafter the same), and detected with a UV light (260 nm). The specific activity of sucrose synthase aqueous solution (D7-1) was calculated to be 0.3 U/μL from the relationship between the yield of compound (C-7) and the reaction time.
Reaction solution (3) was prepared by adding 0.1 mg of reduced thioredoxin and 10 μL of ribonucleotide diphosphate reductase aqueous solution (D6-1) to 1 mL of aqueous solution R. Three such reaction solutions (3) were prepared and allowed to react at 30° C. for 5 minutes, 10 minutes, and 15 minutes, respectively. As for the amount of compound (C-6) as the reaction product (deoxyuridine diphosphate), the reaction product was developed on TLC and detected with a UV light (260 nm). The specific activity of ribonucleotide diphosphate reductase aqueous solution (D6-1) was calculated to be 0.3 U/μL from the relationship between the yield of compound (C-6) and the reaction time. […]
Reaction solution (5) was prepared by adding 10 μL of nucleotidase aqueous solution (D3-1) to 1 mL of aqueous solution R. Three such reaction solutions (5) were prepared and allowed to react at 30° C. for 5 minutes, 10 minutes, and 15 minutes, respectively. For the amount of compound (C-3) as the reaction product (uridine monophosphate), the reaction product was developed on TLC and detected with a UV light (260 nm). […]

[2] = Enzyme activity ratio (Y1)=Vmax1/Vmax2 of conversion enzyme (Lineweaver-Burk); assay type: biochemical
Excerpt: In the present invention, in the case where ribonucleoside diphosphate conversion enzyme (D) is used, an enzyme activity ratio (Y1) calculated from the following formula (1) using enzyme activity Vmax1 and enzyme activity Vmax2 described below is preferably not lower than 0.1 in terms of efficient polysaccharide production and efficient use of the substrate (ribonucleoside diphosphate-monosaccharide (A)). Enzyme activity ratio (Y1)=Vmax1/Vmax2 (1) • Enzyme activity Vmax1: the enzyme activity of ribonucleoside diphosphate conversion enzyme (D) on ribonucleoside diphosphate. • Enzyme activity Vmax2: the enzyme activity of ribonucleoside diphosphate conversion enzyme (D) on ribonucleoside diphosphate-monosaccharide (A).
An enzyme reaction solution (II) containing specific amounts of substrate (ribonucleoside diphosphate or uridine diphosphate-monosaccharide (A)), enzyme (polysaccharide synthase (B) or ribonucleoside diphosphate conversion enzyme (D)), pH adjuster (K), and water is prepared, which is adjusted to a specific temperature and a specific pH. • Phosphate-containing compound (F) is added, if necessary, to the enzyme reaction solution (II) if the enzyme to be used is (D4). Reducing agent (d6) is added if the enzyme is (D6), and raw material (d7) of nucleotide sugar is added if the enzyme is (D7).
After preparation of the enzyme reaction solution (II), it is allowed to stand for enzyme reaction for 1 minute to 100 hours. Next, the amount (X) of the reaction product obtained from the reaction is measured to determine the initial enzyme reaction velocity v. Likewise, the initial enzyme reaction velocity v is determined, using the enzyme reaction solution (II) having a different substrate concentration. A Lineweaver-Burk plot is generated from the above-obtained initial enzyme reaction velocity v and substrate concentration, and the enzyme activity Vmax is determined therefrom.
The enzyme activity Vmax (M/s) is determined using Lineweaver-Burk plot derived from Michaelis-Menten kinetics. […]
In the above measurement, the result determined using ribonucleoside diphosphate conversion enzyme (D) as an enzyme and ribonucleoside diphosphate as a substrate represents Vmax1, and the result determined using ribonucleoside diphosphate conversion enzyme (D) as an enzyme and ribonucleoside diphosphate-monosaccharide (A) as a substrate represents Vmax2. In the case where two or more types of ribonucleoside diphosphate-monosaccharide (A) are used, Vmax2 is determined for each ribonucleoside diphosphate-monosaccharide (A). The enzyme activity ratio (Y1) is also determined for each type from formula (1) using each Vmax2. […]

## pyruvate kinase aqueous solution (D4-1-1): pyruvate kinase, SEQ ID NO: 4, derived from Escherichia coli
[1]
  specific activity: 0.3 U/μL
[2]; Vmax2 substrates UDP-glucuronic acid, -N-acetylglucosamine, -N-acetylgalactosamine, -glucose, -mannose, -glucosamine
  enzyme activity ratio (Y1) of each type: ≥ 10

## sucrose synthase aqueous solution (D7-1): sucrose synthase, SEQ ID NO: 2, derived from Vicia faba
[1]
  specific activity: 0.3 U/μL
[2]; Vmax2 substrate uridine diphosphate-N-acetylglucosamine
  enzyme activity ratio (Y1): ≥ 10
[2]; Vmax2 substrate uridine diphosphate-glucuronic acid
  enzyme activity ratio (Y1): ≥ 10

## polyribonucleotide nucleotidyltransferase aqueous solution (D5-1): polyribonucleotide nucleotidyltransferase, SEQ ID NO: 6, derived from Escherichia coli
[1]
  specific activity: 0.3 U/μL
[2]; Vmax2 substrates uridine diphosphate-glucuronic acid and uridine diphosphate-N-acetylglucosamine
  enzyme activity ratio (Y1) of each type: ≥ 10
